From US20030134799A1 come the findings set out here.

Experiment [1] addresses NMDA receptor of well-washed rat forebrain membranes (rat) (UniProt Q9R1M7).
The target in experiment [2] is NMDA receptor of primary cultures of rat cerebellar granule cells (rat). Kind of experiment: cell-based or functional assay.
Experiment [3] deals with NMDA receptor of well-washed rat forebrain membranes (rat) (UniProt Q9R1M7). Kind of experiment: cell-based or functional assay.
Experiment [4] has the same target. Kind of experiment: displacement of [3H]ifenprodil, polyamine-sensitive site. (In general: In a radioligand displacement assay an active substance lowers the binding of a labelled ligand.)

Read-outs that look alike come from different tables or passages of the source.

NMDA receptor of well-washed rat forebrain membranes (rat), sequence (Q9R1M7 24-1135): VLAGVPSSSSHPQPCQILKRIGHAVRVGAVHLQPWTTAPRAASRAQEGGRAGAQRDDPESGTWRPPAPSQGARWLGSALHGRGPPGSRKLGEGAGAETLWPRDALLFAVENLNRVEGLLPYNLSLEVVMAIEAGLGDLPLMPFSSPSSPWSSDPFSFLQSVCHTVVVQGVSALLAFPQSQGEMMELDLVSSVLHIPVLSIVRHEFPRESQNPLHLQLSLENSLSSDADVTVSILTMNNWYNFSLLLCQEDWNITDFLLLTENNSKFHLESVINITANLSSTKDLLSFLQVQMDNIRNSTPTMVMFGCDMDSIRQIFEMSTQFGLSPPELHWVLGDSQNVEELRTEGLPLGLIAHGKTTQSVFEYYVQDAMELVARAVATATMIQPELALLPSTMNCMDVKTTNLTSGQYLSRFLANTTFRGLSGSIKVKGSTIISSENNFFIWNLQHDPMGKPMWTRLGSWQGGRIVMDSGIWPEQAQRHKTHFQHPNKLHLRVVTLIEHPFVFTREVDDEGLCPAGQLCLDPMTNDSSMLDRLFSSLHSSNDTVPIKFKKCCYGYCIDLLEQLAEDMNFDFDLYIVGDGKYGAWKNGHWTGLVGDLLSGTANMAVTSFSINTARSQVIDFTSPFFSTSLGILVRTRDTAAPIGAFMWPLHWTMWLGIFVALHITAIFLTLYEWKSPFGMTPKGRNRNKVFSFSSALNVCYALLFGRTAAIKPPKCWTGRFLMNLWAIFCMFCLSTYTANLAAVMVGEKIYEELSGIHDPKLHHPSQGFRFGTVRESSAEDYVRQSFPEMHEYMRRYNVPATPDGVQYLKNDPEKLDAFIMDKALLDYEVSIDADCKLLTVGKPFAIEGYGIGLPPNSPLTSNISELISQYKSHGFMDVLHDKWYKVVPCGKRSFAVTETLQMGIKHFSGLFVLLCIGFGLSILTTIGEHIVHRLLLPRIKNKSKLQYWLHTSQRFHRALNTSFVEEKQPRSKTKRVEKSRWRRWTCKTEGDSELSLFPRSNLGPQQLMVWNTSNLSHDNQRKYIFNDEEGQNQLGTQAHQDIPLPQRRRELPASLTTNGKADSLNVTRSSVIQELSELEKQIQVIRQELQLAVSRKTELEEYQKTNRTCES

With Conantokin-G (peptide), the IC50 (commonly the point on the concentration scale where inhibition reaches its midpoint) in experiment [1] was over 5000 nM. Also, the IC50, inhibition of NMDA-stimulated increases in cyclic GMP formation in experiment [2] was found to be 300 nM. In experiment [3], the % Inh, spermine-enhanced [3H]MK-801 binding stood at 100%; the % Sti, [3H]MK-801 binding without spermine worked out at 0%; the IC50, antagonism of Gly-stimulated [3H]MK-801 binding, representative experiment was 835 nM; the IC50, inhibition of spermine-enhanced [3H]MK-801 binding, typical experiment turned out to be 275 nM. Besides, the IC (µM), inhibition of spermine-enhanced [3H]MK-801 binding in experiment [3] was 0.16 µM. This substance had an IC50 in experiment [4] of over 5000 nM.
